Reference: PMC8913647

Assays:
[1] = molecular target: major capsid protein VP1 of GII.4 norovirus Houston/TCH186/2002 (HOV), assembled as virus-like particle (human norovirus GII.4 (Houston/TCH186/2002, HOV)); assay: cryo-EM structure; GII.4 HOV VLPs (0.24 mg/ml) in PBS pH 6.0 on graphene oxide coated grids; single-particle reconstruction with icosahedral symmetry imposed (cryoSPARC); ~3.8 Å
[2] = molecular target: major capsid protein VP1 of GII.4 norovirus Houston/TCH186/2002 (HOV), assembled as virus-like particle (human norovirus GII.4 (Houston/TCH186/2002, HOV)); assay: crystal structure; GII.4 HOV VLP crystallised by hanging-drop vapor diffusion at room temperature; space group I222, 45 VP1 copies in the asymmetric unit, refined with NCS without imposing icosahedral symmetry; 3.0 Å

major capsid protein VP1 of GII.4 norovirus Houston/TCH186/2002 (HOV), assembled as virus-like particle (natural protein)
stoichiometry N [1]: 180
stoichiometry N [2]: 180
